According to the supplement of paper PMC11316812:
± gives the standard deviation of the averaged measurements.

Legend:
MCF7 = assay: percentage of EdU-negative (G0-arrested) nuclei per well, 72 h; higher = more G0 arrest; details: reference: sequence is the full UniProt precursor, the tested protein was the secreted form or ectodomain
hTERT-HMEC = assay: as above; details: reference: sequence is the full UniProt precursor, the tested protein was the secreted form or ectodomain
[1] = protein concentration 0.0197143 µM
[2] = protein concentration 0.197143 µM
[3] = protein concentration 0.0225 µM
[4] = protein concentration 0.03092 µM
[5] = protein concentration 0.3092 µM
[6] = protein concentration 0.03125 µM
[7] = protein concentration 0.3125 µM
[8] = protein concentration 0.01125 µM
[9] = protein concentration 0.1125 µM
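Also: secreted proteins added to cultured cells, EdU pulse at the end, nuclei found by Hoechst imaging, EdU status from nuclear versus surrounding ring intensity ratio, PBS as neutral control.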

Row | Sequence | percentage of EdU-negative (MCF7; [3]) | percentage of EdU-negative (MCF7; protein concentration 0.225 µM) | percentage of EdU-negative (hTERT-HMEC; [3]) | percentage of EdU-negative (hTERT-HMEC; protein concentration 0.225 µM) | also measured
1 | MHPHRDPRGLWLLLPSLSLLLFEVARAGRAVVSCPAACLCASNILSCSKQQLPNVPHSLPSYTALLDLSHNNLSRLRAEWTPTRLTQLHSLLLSHNHLNFISSEAFSPVPNLRYLDLSSNQLRTLDEFLFSDLQVLEVLLLYNNHIMAVDRCAFDDMAQLQKLYLSQNQISRFPLELVKEGAKLPKLTLLDLSSNKLKNLPLPDLQKLPAWIKNGLYLHNNPLNCDCELYQLFSHWQYRQLSSVMDFQEDLYCMNSKKLHNVFNLSFLNCGEYKERAWEAHLGDTLIIKCDTKQQGMTKVWVTPSNERVLDEVTNGTVSVSKDGSLLFQQVQVEDGGVYTCYAMGETFNETLSVELKVHNFTLHGHHDTLNTAYTTLVGCILSVVLVLIYLYLTPCRCWCRGVEKPSSHQGDSLSSSMLSTTPNHDPMAGGDKDDGFDRRVAFLEPAGPGQGQNGKLKPGNTLPVPEATGKGQRRMSDPESVSSVFSDTPIVV [Q86WK6] |  |  |  |  | percentage of EdU-negative (MCF7; [1]): 21.9 ± 0.6%; percentage of EdU-negative (MCF7; [2]): 29.5 ± 1.3%; percentage of EdU-negative (hTERT-HMEC; [1]): 6.07 ± 0.64%; percentage of EdU-negative (hTERT-HMEC; [2]): 17.3 ± 0.43%
2 | MHQMNAKMHFRFVFALLIVSFNHDVLGKNLKYRIYEEQRVGSVIARLSEDVADVLLKLPNPSTVRFRAMQRGNSPLLVVNEDNGEISIGATIDREQLCQKNLNCSIEFDVITLPTEHLQLFHIEVEVLDINDNSPQFSRSLIPIEISESAAVGTRIPLDSAFDPDVGENSLHTYSLSANDFFNIEVRTRTDGAKYAELIVVRELDRELKSSYELQLTASDMGVPQRSGSSILKISISDSNDNSPAFEQQSYIIQLLENSPVGTLLLDLNATDPDEGANGKIVYSFSSHVSPKIMETFKIDSERGHLTLFKQVDYEITKSYEIDVQAQDLGPNSIPAHCKIIIKVVDVNDNKPEININLMSPGKEEISYIFEGDPIDTFVALVRVQDKDSGLNGEIVCKLHGHGHFKLQKTYENNYLILTNATLDREKRSEYSLTVIAEDRGTPSLSTVKHFTVQINDINDNPPHFQRSRYEFVISENNSPGAYITTVTATDPDLGENGQVTYTILESFILGSSITTYVTIDPSNGAIYALRIFDHEEVSQITFVVEARDGGSPKQLVSNTTVVLTIIDENDNVPVVIGPALRNNTAEITIPKGAESGFHVTRIRAIDRDSGVNAELSCAIVAGNEENIFIIDPRSCDIHTNVSMDSVPYTEWELSVIIQDKGNPQLHTKVLLKCMIFEYAESVTSTAMTSVSQASLDVSMIIIISLGAICAVLLVIMVLFATRCNREKKDTRSYNCRVAESTYQHHPKRPSRQIHKGDITLVPTINGTLPIRSHHRSSPSSSPTLERGQMGSRQSHNSHQSLNSLVTISSNHVPENFSLELTHATPAVEQVSQLLSMLHQGQYQPRPSFRGNKYSRSYRYALQDMDKFSLKDSGRGDSEAGDSDYDLGRDSPIDRLLGEGFSDLFLTDGRIPAAMRLCTEECRVLGHSDQCWMPPLPSPSSDYRSNMFIPGEEFPTQPQQQHPHQSLEDDAQPADSGEKKKSFSTFGKDSPNDEDTGDTSTSSLLSEMSSVFQRLLPPSLDTYSECSEVDRSNSLERRKGPLPAKTVGYPQGVAAWAASTHFQNPTTNCGPPLGTHSSVQPSSKWLPAMEEIPENYEEDDFDNVLNHLNDGKHELMDASELVAEINKLLQDVRQS [Q9HCL0] | 28.4 ± 2% | 32.5 ± 0.58% | 3.86 ± 0.13% | 11.6 ± 1.6% | 
3 | MHSFPPLLLLLFWGVVSHSFPATLETQEQDVDLVQKYLEKYYNLKNDGRQVEKRRNSGPVVEKLKQMQEFFGLKVTGKPDAETLKVMKQPRCGVPDVAQFVLTEGNPRWEQTHLTYRIENYTPDLPRADVDHAIEKAFQLWSNVTPLTFTKVSEGQADIMISFVRGDHRDNSPFDGPGGNLAHAFQPGPGIGGDAHFDEDERWTNNFREYNLHRVAAHELGHSLGLSHSTDIGALMYPSYTFSGDVQLAQDDIDGIQAIYGRSQNPVQPIGPQTPKACDSKLTFDAITTIRGEVMFFKDRFYMRTNPFYPEVELNFISVFWPQLPNGLEAAYEFADRDEVRFFKGNKYWAVQGQNVLHGYPKDIYSSFGFPRTVKHIDAALSEENTGKTYFFVANKYWRYDEYKRSMDPGYPKMIAHDFPGIGHKVDAVFMKDGFFYFFHGTRQYKFDPKTKRILTLQKANSWFNCRKN |  |  |  |  | percentage of EdU-negative (MCF7; [4]): 24.3 ± 3.2%; percentage of EdU-negative (MCF7; [5]): 26.43 ± 0.08%; percentage of EdU-negative (hTERT-HMEC; [4]): 4.22 ± 0.79%; percentage of EdU-negative (hTERT-HMEC; [5]): 6.403 ± 0.048%
4 | MHYCVLSAFLILHLVTVALSLSTCSTLDMDQFMRKRIEAIRGQILSKLKLTSPPEDYPEPEEVPPEVISIYNSTRDLLQEKASRRAAACERERSDEEYYAKEVYKIDMPPFFPSENAIPPTFYRPYFRIVRFDVSAMEKNASNLVKAEFRVFRLQNPKARVPEQRIELYQILKSKDLTSPTQRYIDSKVVKTRAEGEWLSFDVTDAVHEWLHHKDRNLGFKISLHCPCCTFVPSNNYIIPNKSEELEARFAGIDGTSTYTSGDQKTIKSTRKKNSGKTPHLLLMLLPSYRLESQQTNRRKKRALDAAYCFRNVQDNCCLRPLYIDFKRDLGWKWIHEPKGYNANFCAGACPYLWSSDTQHSRVLSLYNTINPEASASPCCVSQDLEPLTILYYIGKTPKIEQLSNMIVKSCKCS |  |  |  |  | percentage of EdU-negative (MCF7; [6]): 30.8 ± 2.4%; percentage of EdU-negative (MCF7; [7]): 40.6 ± 2.4%; percentage of EdU-negative (hTERT-HMEC; [6]): 4.63 ± 1.4%; percentage of EdU-negative (hTERT-HMEC; [7]): 15.8 ± 4.9%
5 | MIAFLLTSVLMIPHAGGHPLDTPHLPQELPPGLPNNINITFFSGMFKNVESVAEIFDCLGPHFTWLQAVFTNFPVLIQFVNGMKCVAGLCPRDFEDYGCTCRFEMEGLPVDESDSCCFQHRRCYEEAAEMDCLQDPAKLSTEVNCVSKKIICESKDNCEHLLCTCDKAAIECLARSSLNSSLNLLDTSFCLAQTPETTIKEDLTTLLPRVVPVEPTDTSLTALSGEEAGHDQEGVGAARATSPPGSAEIVATRVTAKIVTLVPAGIKSLGLAVSSVENDPEETTEKACDRFTFLHLGSGDNMQVMPQLGEMLFCLTSRCPEEFESYGCYCGQEGRGEPRDDLDRCCLSHHCCLEQVRRLGCLLERLPWSPVVCVDHTPKCGGQSLCEKLLCACDQTAAECMTSASFNQSLKSPSRLGCPGQPAACEDSLHPVPAAPTLGSSSEEDSEEDPPQEDLGRAKRFLRKSLGPLGIGPLHGR | 26.2 ± 2.5% | 25.7 ± 0.78% | 5.21 ± 0.36% | 5.66 ± 0.11% | 
6 | MICLVLTIFANLFPAACTGAHERTFLAVKPDGVQRRLVGEIVRRFERKGFKLVALKLVQASEELLREHYAELRERPFYGRLVKYMASGPVVAMVWQGLDVVRTSRALIGATNPADAPPGTIRGDFCIEVGKNLIHGSDSVESARREIALWFRADELLCWEDSAGHWLYE | 25.5 ± 3.9% | 22.9 ± 1.8% | 4.25 ± 0.15% | 5.77 ± 0.68% | 
7 | MICQKFCVVLLHWEFIYVITAFNLSYPITPWRFKLSCMPPNSTYDYFLLPAGLSKNTSNSNGHYETAVEPKFNSSGTHFSNLSKTTFHCCFRSEQDRNCSLCADNIEGKTFVSTVNSLVFQQIDANWNIQCWLKGDLKLFICYVESLFKNLFRNYNYKVHLLYVLPEVLEDSPLVPQKGSFQMVHCNCSVHECCECLVPVPTAKLNDTLLMCLKITSGGVIFQSPLMSVQPINMVKPDPPLGLHMEITDDGNLKISWSSPPLVPFPLQYQVKYSENSTTVIREADKIVSATSLLVDSILPGSSYEVQVRGKRLDGPGIWSDWSTPRVFTTQDVIYFPPKILTSVGSNVSFHCIYKKENKIVPSKEIVWWMNLAEKIPQSQYDVVSDHVSKVTFFNLNETKPRGKFTYDAVYCCNEHECHHRYAELYVIDVNINISCETDGYLTKMTCRWSTSTIQSLAESTLQLRYHRSSLYCSDIPSIHPISEPKDCYLQSDGFYECIFQPIFLLSGYTMWIRINHSLGSLDSPPTCVLPDSVVKPLPPSSVKAEITINIGLLKISWEKPVFPENNLQFQIRYGLSGKEVQWKMYEVYDAKSKSVSLPVPDLCAVYAVQVRCKRLDGLGYWSNWSNPAYTVVMDIKVPMRGPEFWRIINGDTMKKEKNVTLLWKPLMKNDSLCSVQRYVINHHTSCNGTWSEDVGNHTKFTFLWTEQAHTVTVLAINSIGASVANFNLTFSWPMSKVNIVQSLSAYPLNSSCVIVSWILSPSDYKLMYFIIEWKNLNEDGEIKWLRISSSVKKYYIHDHFIPIEKYQFSLYPIFMEGVGKPKIINSFTQDDIEKHQSDAGLYVIVPVIISSSILLLGTLLISHQRMKKLFWEDVPNPKNCSWAQGLNFQKPETFEHLFIKHTASVTCGPLLLEPETISEDISVDTSWKNKDEMMPTTVVSLLSTTDLEKGSVCISDQFNSVNFSEAEGTEVTYEDESQRQPFVKYATLISNSKPSETGEEQGLINSSVTKCFSSKNSPLKDSFSNSSWEIEAQAFFILSDQHPNIISPHLTFSEGLDELLKLEGNFPEENNDKKSIYYLGVTSIKKRESGVLLTDKSRVSCPFPAPCLFTDIRVLQDSCSHFVENNINLGTSSKKTFASYMPQFQTCSTQTHKIMENKMCDLTV |  |  |  |  | percentage of EdU-negative (MCF7; protein concentration 0.012 µM): 23.4 ± 3.1%; percentage of EdU-negative (MCF7; protein concentration 0.12 µM): 21.2 ± 0.96%; percentage of EdU-negative (hTERT-HMEC; protein concentration 0.012 µM): 5.06 ± 0.43%; percentage of EdU-negative (hTERT-HMEC; protein concentration 0.12 µM): 5.17 ± 0.64%
8 | MIFLLLMLSLELQLHQIAALFTVTVPKELYIIEHGSNVTLECNFDTGSHVNLGAITASLQKVENDTSPHRERATLLEEQLPLGKASFHIPQVQVRDEGQYQCIIIYGVAWDYKYLTLKVKASYRKINTHILKVPETDEVELTCQATGYPLAEVSWPNVSVPANTSHSRTPEGLYQVTSVLRLKPPPGRNFSCVFWNTHVRELTLASIDLQSQMEPRTHPTWLLHIFIPFCIIAFIFIATVIALRKQLCQKLYSSKDTTKRPVTTTKREVNSAI [Q9BQ51] | 23.9 ± 0.28% | 24.6 ± 0.78% | 4.79 ± 0.078% | 7.37 ± 0.34% | 
9 | MIFLTALPLFWIMISASRGGHWGAWMPSSISAFEGTCVSIPCRFDFPDELRPAVVHGVWYFNSPYPKNYPPVVFKSRTQVVHESFQGRSRLLGDLGLRNCTLLLSNVSPELGGKYYFRGDLGGYNQYTFSEHSVLDIVNTPNIVVPPEVVAGTEVEVSCMVPDNCPELRPELSWLGHEGLGEPAVLGRLREDEGTWVQVSLLHFVPTREANGHRLGCQASFPNTTLQFEGYASMDVKYPPVIVEMNSSVEAIEGSHVSLLCGADSNPPPLLTWMRDGTVLREAVAESLLLELEEVTPAEDGVYACLAENAYGQDNRTVGLSVMYAPWKPTVNGTMVAVEGETVSILCSTQSNPDPILTIFKEKQILSTVIYESELQLELPAVSPEDDGEYWCVAENQYGQRATAFNLSVEFAPVLLLESHCAAARDTVQCLCVVKSNPEPSVAFELPSRNVTVNESEREFVYSERSGLVLTSILTLRGQAQAPPRVICTARNLYGAKSLELPFQGAHRLMWAKIGPVGAVVAFAILIAIVCYITQTRRKKNVTESPSFSAGDNPPVLFSSDFRISGAPEKYESERRLGSERRLLGLRGEPPELDLSYSHSDLGKRPTKDSYTLTEELAEYAEIRVK |  |  |  |  | percentage of EdU-negative (MCF7; [8]): 28.5 ± 0.33%; percentage of EdU-negative (MCF7; [9]): 28.73 ± 0.11%; percentage of EdU-negative (hTERT-HMEC; [8]): 5.66 ± 0.36%; percentage of EdU-negative (hTERT-HMEC; [9]): 6.55 ± 0.84%
10 | MIFPWKCQSTQRDLWNIFKLWGWTMLCCDFLAHHGTDCWTYHYSEKPMNWQRARRFCRDNYTDLVAIQNKAEIEYLEKTLPFSRSYYWIGIRKIGGIWTWVGTNKSLTEEAENWGDGEPNNKKNKEDCVEIYIKRNKDAGKWNDDACHKLKAALCYTASCQPWSCSGHGECVEIINNYTCNCDVGYYGPQCQFVIQCEPLEAPELGTMDCTHPLGNFSFSSQCAFSCSEGTNLTGIEETTCGPFGNWSSPEPTCQVIQCEPLSAPDLGIMNCSHPLASFSFTSACTFICSEGTELIGKKKTICESSGIWSNPSPICQKLDKSFSMIKEGDYNPLFIPVAVMVTAFSGLAFIIWLARRLKKGKKSKRSMNDPY | 24.2 ± 0.78% | 32.8 ± 4% | 4.92 ± 0.1% | 11.1 ± 1.2% | 
